US20110281938, “APTAMERS TO TISSUE FACTOR PATHWAY INHIBITOR AND THEIR USE AS BLEEDING DISORDER THERAPEUTICS” (Baxter Healthcare S.A., published 2011)
Where a chain is given by its changes, count along the chain named.

Legend:
Settings in all cases: tags: American Diagnostica 4500PC/4900PC, E. coli expressed
[1] = target: T1, TFPI (tissue factor pathway inhibitor, full-length) (Homo sapiens, UniProt P10646 SEQ:1-276); test: competition; meets binding-competition criterion
Description: (§1) The substituted ARC17480 molecules were assayed for binding and function. The assays used for this evaluation were the calibrated automated thrombogram (CAT) assay, a dot-blot binding-competition assay and a FXa activity assay. The results of these assays are summarized in Table 40 and depicted in FIG. 147. A mutation was considered tolerated for activity if it met the criteria of at least two of the three assays that were carried out. Mutations that are tolerated (“yes”) and not tolerated (“no”) are identified in Table 40. The experimental details and the criteria used for each assay are described in the following paragraphs. The molecules described in this example were first tested in the CAT assay and the dot-blot binding-competition assay. In most cases, molecules were only tested in the FXa assay if there was a discrepancy between the results in the CAT assay and the dot-blot binding-competition assay.
(§2) Each molecule was evaluated for binding to tissue factor pathway inhibitor (TFPI) in a binding-competition assay. For these experiments, 10 nM human TFPI (American Diagnostica, Stamford, Conn., catalog #4900PC) was incubated with trace amounts of radiolabeled ARC17480 and 5000 nM, 1666.67 nM, 555.56 nM, 185.19 nM, 61.73 nM, 20.58 nM, 6.86 nM, 2.29 nM, 0.76 nM or 0.25 nM of unlabeled competitor aptamer. ARC17480 was included as a competitor in every experiment as a control. For each molecule, the percentage of radiolabeled ARC17480 bound at each competitor aptamer concentration was used for analysis. The percentage of radiolabeled ARC17480 bound was plotted as a function of aptamer concentration and fit to the equation y=(max/(1+x/IC₅₀))+int, where y=the percentage of radiolabeled ARC17480 bound, x=the concentration of aptamer, max=the maximum radiolabeled ARC17480 bound, and int=the y-intercept, to generate an IC₅₀ value for binding-competition. The IC₅₀ of each aptamer was compared to the IC₅₀ of ARC17480 that was evaluated in the same experiment. A mutation was considered tolerated in the binding-competition assay if the IC₅₀ of that molecule was not more than 5-fold greater than that of ARC17480 evaluated in the same experiment. Tolerated mutations are indicated in Table 40 as meeting the assay criteria (“yes”) or not meeting the assay criteria (“no”).

[2] = target: T1, TFPI (tissue factor pathway inhibitor, …); test: competition; meets binding-competition criterion; CAT and FXa no
Description: as §1
Each molecule was evaluated for binding to tissue factor pathway inhibitor (TFPI) in a binding-competition assay. For these experiments, 10 nM human TFPI (American Diagnostica, Stamford, Conn., catalog #4900PC) was incubated with trace amounts of radiolabeled ARC17480 and 5000 nM, 1666.67 nM, 555.56 nM, 185.19 nM, 61.73 nM, 20.58 nM, 6.86 nM, 2.29 nM, 0.76 nM or 0.25 nM of unlabeled competitor aptamer. ARC17480 was included as a competitor in every experiment as a control. For each molecule, the percentage of radiolabeled ARC17480 bound at each competitor aptamer concentration was used for analysis. […] The IC₅₀ of each aptamer was compared to the IC₅₀ of ARC17480 that was evaluated in the same experiment. A mutation was considered tolerated in the binding-competition assay if the IC₅₀ of that molecule was not more than 5-fold greater than that of ARC17480 evaluated in the same experiment. […]

[3] = target: T1, TFPI (tissue factor pathway inhibitor, …); test: competition; dot-blot
Description: as §1, §2

[4] = target: T1, TFPI (tissue factor pathway inhibitor, …); test: competition; dot-blot; CAT criterion not met
Description: as §1, §2

[5] = target: T1, TFPI (tissue factor pathway inhibitor, …); test: competition; meets binding-competition criterion; CAT no
Description: as §1
Each molecule was evaluated for binding to tissue factor pathway inhibitor (TFPI) in a binding-competition assay. […] The IC₅₀ of each aptamer was compared to the IC₅₀ of ARC17480 that was evaluated in the same experiment. A mutation was considered tolerated in the binding-competition assay if the IC₅₀ of that molecule was not more than 5-fold greater than that of ARC17480 evaluated in the same experiment. […]

[6] = target: T1, TFPI (tissue factor pathway inhibitor, …); test: competition; dot-blot; FXa assay criterion not met
Description: Each molecule was evaluated for binding to tissue factor pathway inhibitor (TFPI) in a binding-competition assay. For these experiments, 10 nM human TFPI (American Diagnostica, Stamford, Conn., catalog #4500PC) was incubated with trace amounts of radiolabeled ARC17480 and 5000 nM, 1666.67 nM, 555.56 nM, 185.19 nM, 61.73 nM, 20.58 nM, 6.86 nM, 2.29 nM, 0.76 nM or 0.25 nM of unlabeled competitor aptamer. ARC17480 was included as a competitor in every experiment as a control. For each molecule, the percentage of radiolabeled ARC17480 bound at each competitor aptamer concentration was used for analysis. The percentage of radiolabeled ARC17480 bound was plotted as a function of aptamer concentration and fit to the equation y=(max/(1+x/IC₅₀))+int, where y=the percentage of radiolabeled ARC17480 bound, x=the concentration of aptamer, max=the maximum radiolabeled ARC17480 bound, and int=the y-intercept, to generate an IC₅₀ value for binding-competition. The IC₅₀ of each aptamer was compared to the IC₅₀ of ARC17480 that was evaluated in the same experiment. A substitution was considered tolerated in the binding-competition assay if the IC₅₀ of that molecule was not more than 5-fold greater than that of ARC17480 evaluated in the same experiment. Tolerated substitutions are indicated in Table 37 as meeting the assay criteria (“yes”) or not meeting the assay criteria (“no”).

T1 sequence (P10646 29-304): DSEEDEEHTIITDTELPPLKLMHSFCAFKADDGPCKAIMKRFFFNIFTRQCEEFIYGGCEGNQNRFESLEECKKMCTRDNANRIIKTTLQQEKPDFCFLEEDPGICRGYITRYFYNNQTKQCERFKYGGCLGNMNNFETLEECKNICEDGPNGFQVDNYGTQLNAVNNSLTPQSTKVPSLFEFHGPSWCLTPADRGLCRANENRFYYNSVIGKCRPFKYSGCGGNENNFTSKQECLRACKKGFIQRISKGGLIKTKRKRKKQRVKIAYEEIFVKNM

B1: ARC33167 (mixed)
RNA: GGAAUAUACUUGGCUCGUCAGGUGCGUAUAUA
modifications: 2'-OMe A/G/U and mC19, other C 2'-deoxy, 3' idT
binding signal [1]: ≤ 5 fold IC50 of ARC17480

B2: ARC33180 (mixed)
RNA: B1 RNA with C19U, A32U
modifications: 2'-OMe A/G/U, 2'-deoxy C, 3' idT
binding signal [1]: ≤ 5 fold IC50 of ARC17480

B3: ARC33156 (mixed)
RNA: B1 RNA with A8U, C19U
modifications: 2'-OMe A/G/U, 2'-deoxy C, 3' idT
binding signal [2]: ≤ 5 fold IC50 of ARC17480

B4: ARC34866 (XNA)
RNA: B1 RNA with A6G, C19U
modifications: 2'-OMe except dC9, dC14, dC16, dC25; 3' idT
binding signal [3]: ≤ 5 fold IC50 vs ARC17480

B5: ARC34870 (XNA)
RNA: B1 RNA with A8G, C19U
modifications: 2'-OMe except dC9, dC14, dC16, dC25; 3' idT
binding signal [4]: ≤ 5 fold IC50 vs ARC17480

B6: ARC34865 (XNA)
RNA: B1 RNA with U5G, C19U
modifications: 2'-OMe except dC9, dC14, dC16, dC25; 3' idT
binding signal [3]: ≤ 5 fold IC50 vs ARC17480

B7: ARC34867 (XNA)
RNA: B1 RNA with A6C, C19U
modifications: 2'-OMe except dC9, dC14, dC16, dC25; 3' idT
binding signal [4]: ≤ 5 fold IC50 vs ARC17480

B8: ARC34858 (XNA)
RNA: B1 RNA with G2A, C19U
modifications: 2'-OMe except dC9, dC14, dC16, dC25; 3' idT
binding signal [3]: ≤ 5 fold IC50 vs ARC17480

B9: ARC33179 (mixed)
RNA: B1 RNA with C19U, U31C
modifications: 2'-OMe A/G/U and mC31, other C 2'-deoxy, 3' idT
binding signal [1]: ≤ 5 fold IC50 of ARC17480

B10: ARC33158 (mixed)
RNA: B1 RNA with U10C, C19U
modifications: 2'-OMe A/G/U and mC10, other C 2'-deoxy, 3' idT
binding signal [1]: ≤ 5 fold IC50 of ARC17480

B11: ARC33162 (mixed)
mixed: B1 RNA with C14T, C19U
modifications: 2'-OMe A/G/U, dT14, 2'-deoxy C, 3' idT
binding signal [2]: ≤ 5 fold IC50 of ARC17480

B12: ARC33154 (mixed)
RNA: B1 RNA with A6U, C19U
modifications: 2'-OMe A/G/U, 2'-deoxy C, 3' idT
binding signal [5]: ≤ 5 fold IC50 of ARC17480

B13: ARC33152 (mixed)
RNA: B1 RNA with A4U, C19U
modifications: 2'-OMe A/G/U, 2'-deoxy C, 3' idT
binding signal [1]: ≤ 5 fold IC50 of ARC17480

B14: ARC33178 (mixed)
RNA: B1 RNA with C19U, A30U
modifications: 2'-OMe A/G/U, 2'-deoxy C, 3' idT
binding signal [1]: ≤ 5 fold IC50 of ARC17480

B15: ARC18540 (XNA)
RNA: B1 RNA with C19U
modifications: 2'-OMe except dC9, dC14, dC25; 2'-OMe C16; 3' idT
binding signal [6]: ≤ 5 fold IC50 vs ARC17480

B16: ARC33150 (mixed)
RNA: B1 RNA with G2U, C19U
modifications: 2'-OMe A/G/U, 2'-deoxy C, 3' idT
binding signal [1]: ≤ 5 fold IC50 of ARC17480

B17: ARC34862 (XNA)
RNA: B1 RNA with A4G, C19U
modifications: 2'-OMe except dC9, dC14, dC16, dC25; 3' idT
binding signal [3]: ≤ 5 fold IC50 vs ARC17480
